Experiments:
[1] = tested on: GFP-14-3-3β and its binding proteins; assay: GFP-14-3-3β co-IP with LC-MS/MS label-free quantification, untreated versus PP1c-treated; design: species or system human; settings: pairwise comparison PP1 vs untreated
[2] = tested on: GFP-14-3-3β; assay: GFP-14-3-3β co-IP with LC-MS/MS, untreated GFP-14-3-3β versus GFP control (14-3-3 interactome); type: binding, human; settings: pairwise comparison untreated vs GFP
[3] = log2 difference, label-free quantification, 3 replicates each

B1: UPF1 (protein, UniProt Q92900 1-1129, looked up)
Regulator of nonsense …: MSVEAYGPSSQTLTFLDTEEAELLGADTQGSEFEFTDFTLPSQTQTPPGGPGGPGGGGAGGPGGAGAGAAAGQLDAQVGPEGILQNGAVDDSVAKTSQLLAELNFEEDEEDTYYTKDLPIHACSYCGIHDPACVVYCNTSKKWFCNGRGNTSGSHIVNHLVRAKCKEVTLHKDGPLGETVLECYNCGCRNVFLLGFIPAKADSVVVLLCRQPCASQSSLKDINWDSSQWQPLIQDRCFLSWLVKIPSEQEQLRARQITAQQINKLEELWKENPSATLEDLEKPGVDEEPQHVLLRYEDAYQYQNIFGPLVKLEADYDKKLKESQTQDNITVRWDLGLNKKRIAYFTLPKTDSGNEDLVIIWLRDMRLMQGDEICLRYKGDLAPLWKGIGHVIKVPDNYGDEIAIELRSSVGAPVEVTHNFQVDFVWKSTSFDRMQSALKTFAVDETSVSGYIYHKLLGHEVEDVIIKCQLPKRFTAQGLPDLNHSQVYAVKTVLQRPLSLIQGPPGTGKTVTSATIVYHLARQGNGPVLVCAPSNIAVDQLTEKIHQTGLKVVRLCAKSREAIDSPVSFLALHNQIRNMDSMPELQKLQQLKDETGELSSADEKRYRALKRTAERELLMNADVICCTCVGAGDPRLAKMQFRSILIDESTQATEPECMVPVVLGAKQLILVGDHCQLGPVVMCKKAAKAGLSQSLFERLVVLGIRPIRLQVQYRMHPALSAFPSNIFYEGSLQNGVTAADRVKKGFDFQWPQPDKPMFFYVTQGQEEIASSGTSYLNRTEAANVEKITTKLLKAGAKPDQIGIITPYEGQRSYLVQYMQFSGSLHTKLYQEVEIASVDAFQGREKDFIILSCVRANEHQGIGFLNDPRRLNVALTRARYGVIIVGNPKALSKQPLWNHLLNYYKEQKVLVEGPLNNLRESLMQFSKPRKLVNTINPGARFMTTAMYDAREAIIPGSVYDRSSQGRPSSMYFQTHDQIGMISAGPSHVAAMNIPIPFNLVMPPMPPPGYFGQANGPAAGRGTPKGKTGRGGRQKNRFGLPGPSQTNLPNSQASQDVASQPFSQGALTQGYISMSQPSQMSQPGLSQPELSQDSYLGDEFKSQIDVALSQDSTYQGERAYQHGGVTGLSQY
Difference (log2), PP1 vs untreated [1]: 0.3073 log2
Difference (log2), untreated vs GFP [2]: 0.2927 log2

B2: PLEKHA7 (protein, UniProt Q6IQ23 1-1121, looked up)
Pleckstrin homology …: MAAATVGRDTLPEHWSYGVCRDGRVFFINDQLRCTTWLHPRTGEPVNSGHMIRSDLPRGWEEGFTEEGASYFIDHNQQTTAFRHPVTGQFSPENSEFILQEEPNPHMSKQDRNQRPSSMVSETSTAGTASTLEAKPGPKIIKSSSKVHSFGKRDQAIRRNPNVPVVVRGWLHKQDSSGMRLWKRRWFVLADYCLFYYKDSREEAVLGSIPLPSYVISPVAPEDRISRKYSFKAVHTGMRALIYNSSTAGSQAEQSGMRTYYFSADTQEDMNAWVRAMNQAAQVLSRSSLKRDMEKVERQAVPQANHTESCHECGRVGPGHTRDCPHRGHDDIVNFERQEQEGEQYRSQRDPLEGKRDRSKARSPYSPAEEDALFMDLPTGPRGQQAQPQRAEKNGMLPASYGPGEQNGTGGYQRAFPPRTNPEKHSQRKSNLAQVEHWARAQKGDSRSLPLDQTLPRQGPGQSLSFPENYQTLPKSTRHPSGGSSPPPRNLPSDYKYAQDRASHLKMSSEERRAHRDGTVWQLYEWQQRQQFRHGSPTAPICLGSPEFTDQGRSRSMLEVPRSISVPPSPSDIPPPGPPRVFPPRRPHTPAERVTVKPPDQRRSVDISLGDSPRRARGHAVKNSSHVDRRSMPSMGYMTHTVSAPSLHGKSADDTYLQLKKDLEYLDLKMTGRDLLKDRSLKPVKIAESDTDVKLSIFCEQDRVLQDLEDKIRALKENKDQLESVLEVLHRQMEQYRDQPQHLEKIAYQQKLLQEDLVHIRAELSRESTEMENAWNEYLKLENDVEQLKQTLQEQHRRAFFFQEKSQIQKDLWRIEDVTAGLSANKENFRILVESVKNPERKTVPLFPHPPVPSLSTSESKPPPQPSPPTSPVRTPLEVRLFPQLQTYVPYRPHPPQLRKVTSPLQSPTKAKPKVEDEAPPRPPLPELYSPEDQPPAVPPLPREATIIRHTSVRGLKRQSDERKRDRELGQCVNGDSRVELRSYVSEPELATLSGDMAQPSLGLVGPESRYQTLPGRGLSGSTSRLQQSSTIAPYVTLRRGLNAESSKATFPRPKSALERLYSGDHQRGKMSAEEQLERMKRHQKALVRERKRTLGQGERTGLPSSRYLSRPLPGDLGSVC
Difference (log2), PP1 vs untreated [1]: 0.2527 log2
Difference (log2), untreated vs GFP [2]: 1.203 log2

B3: ATP5O (protein, UniProt P48047 24-213, looked up)
ATP synthase peripheral stalk …: FAKLVRPPVQVYGIEGRYATALYSAASKQNKLEQVEKELLRVAQILKEPKVAASVLNPYVKRSIKVKSLNDITAKERFSPLTTNLINLLAENGRLSNTQGVVSAFSTMMSVHRGEVPCTVTSASPLEEATLSELKTVLKSFLSQGQVLKLEAKTDPSILGGMIVRIGEKYVDMSVKTKIQKLGRAMREIV
Difference (log2), PP1 vs untreated [1]: 0.2696 log2
Difference (log2), untreated vs GFP [2]: 0.8888 log2

B4: ACSL3 (protein, UniProt O95573 1-720, looked up)
Fatty acid CoA ligase Acsl3: MNNHVSSKPSTMKLKHTINPILLYFIHFLISLYTILTYIPFYFFSESRQEKSNRIKAKPVNSKPDSAYRSVNSLDGLASVLYPGCDTLDKVFTYAKNKFKNKRLLGTREVLNEEDEVQPNGKIFKKVILGQYNWLSYEDVFVRAFNFGNGLQMLGQKPKTNIAIFCETRAEWMIAAQACFMYNFQLVTLYATLGGPAIVHALNETEVTNIITSKELLQTKLKDIVSLVPRLRHIITVDGKPPTWSEFPKGIIVHTMAAVEALGAKASMENQPHSKPLPSDIAVIMYTSGSTGLPKGVMISHSNIIAGITGMAERIPELGEEDVYIGYLPLAHVLELSAELVCLSHGCRIGYSSPQTLADQSSKIKKGSKGDTSMLKPTLMAAVPEIMDRIYKNVMNKVSEMSSFQRNLFILAYNYKMEQISKGRNTPLCDSFVFRKVRSLLGGNIRLLLCGGAPLSATTQRFMNICFCCPVGQGYGLTESAGAGTISEVWDYNTGRVGAPLVCCEIKLKNWEEGGYFNTDKPHPRGEILIGGQSVTMGYYKNEAKTKADFFEDENGQRWLCTGDIGEFEPDGCLKIIDRKKDLVKLQAGEYVSLGKVEAALKNLPLVDNICAYANSYHSYVIGFVVPNQKELTELARKKGLKGTWEELCNSCEMENEVLKVLSEAAISASLEKFEIPVKIRLSPEPWTPETGLVTDAFKLKRKELKTHYQADIERMYGRK
Difference (log2), PP1 vs untreated [1]: 0.2597 log2
Difference (log2), untreated vs GFP [2]: 0.1591 log2

B5: ACADM (protein, UniProt P11310 26-421, looked up)
Medium-chain specific …: KANRQREPGLGFSFEFTEQQKEFQATARKFAREEIIPVAAEYDKTGEYPVPLIRRAWELGLMNTHIPENCGGLGLGTFDACLISEELAYGCTGVQTAIEGNSLGQMPIIIAGNDQQKKKYLGRMTEEPLMCAYCVTEPGAGSDVAGIKTKAEKKGDEYIINGQKMWITNGGKANWYFLLARSDPDPKAPANKAFTGFIVEADTPGIQIGRKELNMGQRCSDTRGIVFEDVKVPKENVLIGDGAGFKVAMGAFDKTRPVVAAGAVGLAQRALDEATKYALERKTFGKLLVEHQAISFMLAEMAMKVELARMSYQRAAWEVDSGRRNTYYASIAKAFAGDIANQLATDAVQILGGNGFNTEYPVEKLMRDAKIYQIYEGTSQIQRLIVAREHIDKYKN
Difference (log2), PP1 vs untreated [1, 3]: 2.074
Difference (log2), untreated vs GFP [2, 3]: -2.884

B6: LRRC59 (protein, UniProt Q96AG4 1-307, looked up)
Leucine-rich …: MTKAGSKGGNLRDKLDGNELDLSLSDLNEVPVKELAALPKATILDLSCNKLTTLPSDFCGLTHLVKLDLSKNKLQQLPADFGRLVNLQHLDLLNNKLVTLPVSFAQLKNLKWLDLKDNPLDPVLAKVAGDCLDEKQCKQCANKVLQHMKAVQADQERERQRRLEVEREAEKKREAKQRAKEAQERELRKREKAEEKERRRKEYDALKAAKREQEKKPKKEANQAPKSKSGSRPRKPPPRKHTRSWAVLKLLLLLLLFGVAGGLVACRVTELQQQPLCTSVNTIYDNAVQGLRRHEILQWVLQTDSQQ
Difference (log2), PP1 vs untreated [1]: 0.2489 log2
Difference (log2), untreated vs GFP [2]: 0.4854 log2

B7: MSN (protein, UniProt P26038 2-577, looked up)
Moesin: PKTISVRVTTMDAELEFAIQPNTTGKQLFDQVVKTIGLREVWFFGLQYQDTKGFSTWLKLNKKVTAQDVRKESPLLFKFRAKFYPEDVSEELIQDITQRLFFLQVKEGILNDDIYCPPETAVLLASYAVQSKYGDFNKEVHKSGYLAGDKLLPQRVLEQHKLNKDQWEERIQVWHEEHRGMLREDAVLEYLKIAQDLEMYGVNYFSIKNKKGSELWLGVDALGLNIYEQNDRLTPKIGFPWSEIRNISFNDKKFVIKPIDKKAPDFVFYAPRLRINKRILALCMGNHELYMRRRKPDTIEVQQMKAQAREEKHQKQMERAMLENEKKKREMAEKEKEKIEREKEELMERLKQIEEQTKKAQQELEEQTRRALELEQERKRAQSEAEKLAKERQEAEEAKEALLQASRDQKKTQEQLALEMAELTARISQLEMARQKKESEAVEWQQKAQMVQEDLEKTRAELKTAMSTPHVAEPAENEQDEQDENGAEASADLRADAMAKDRSEEERTTEAEKNERVQKHLKALTSELANARDESKKTANDMIHAENMRLGRDKYKTLRQIRQGNTKQRIDEFESM
Difference (log2), PP1 vs untreated [1]: 0.2864 log2
Difference (log2), untreated vs GFP [2]: 0.7577 log2

B8: RARS (protein, UniProt P54136 1-660, looked up)
Arginine--tRNA ligase, …: MDVLVSECSARLLQQEEEIKSLTAEIDRLKNCGCLGASPNLEQLQEENLKLKYRLNILRKSLQAERNKPTKNMINIISRLQEVFGHAIKAAYPDLENPPLLVTPSQQAKFGDYQCNSAMGISQMLKTKEQKVNPREIAENITKHLPDNECIEKVEIAGPGFINVHLRKDFVSEQLTSLLVNGVQLPALGENKKVIVDFSSPNIAKEMHVGHLRSTIIGESISRLFEFAGYDVLRLNHVGDWGTQFGMLIAHLQDKFPDYLTVSPPIGDLQVFYKESKKRFDTEEEFKKRAYQCVVLLQGKNPDITKAWKLICDVSRQELNKIYDALDVSLIERGESFYQDRMNDIVKEFEDRGFVQVDDGRKIVFVPGCSIPLTIVKSDGGYTYDTSDLAAIKQRLFEEKADMIIYVVDNGQSVHFQTIFAAAQMIGWYDPKVTRVFHAGFGVVLGEDKKKFKTRSGETVRLMDLLGEGLKRSMDKLKEKERDKVLTAEELNAAQTSVAYGCIKYADLSHNRLNDYIFSFDKMLDDRGNTAAYLLYAFTRIRSIARLANIDEEMLQKAARETKILLDHEKEWKLGRCILRFPEILQKILDDLFLHTLCDYIYELATAFTEFYDSCYCVEKDRQTGKILKVNMWRMLLCEAVAAVMAKGFDILGIKPVQRM
Difference (log2), PP1 vs untreated [1]: 0.2613 log2
Difference (log2), untreated vs GFP [2]: -0.5854 log2

From article PMC7367873, “Dissecting the sequence determinants for dephosphorylation by the catalytic subunits of phosphatases PP1 and PP2A” (Nature Communications, 2020)
